Values quoted from earlier work, collected in article PMC10320286.

Biological target: IL-18BP (Homo sapiens) (UniProt O95998)
Sequence (O95998 31-194): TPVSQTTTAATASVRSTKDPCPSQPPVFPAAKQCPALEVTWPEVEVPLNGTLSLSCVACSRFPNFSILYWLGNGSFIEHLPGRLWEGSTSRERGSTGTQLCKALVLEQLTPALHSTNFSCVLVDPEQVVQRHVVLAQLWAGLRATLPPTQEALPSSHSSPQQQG

IL-18, sequence (Q14116 37-193): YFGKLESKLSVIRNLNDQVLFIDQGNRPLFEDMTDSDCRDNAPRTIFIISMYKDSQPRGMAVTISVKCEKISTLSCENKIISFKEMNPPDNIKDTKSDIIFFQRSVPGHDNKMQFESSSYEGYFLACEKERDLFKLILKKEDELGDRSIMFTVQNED

IL-18 (from UniProt Q14116)
Kd: 0.038 nM
